This note sets out measurements from patent US7741051B2, “Soluble ectodomain fragments of MET and uses thereof” (Medical Research Council, priority 2003, dated 2010).

Experiment [1] in a line: Binding of dimeric MET constructs to HiTrap Heparin HP column, NaCl gradient elution. As to conditions: 50 mM phosphate, 150 mM NaCl, pH 7.4, linear NaCl gradient. The protocol:
(§1) Immulon B 96 well plates were coated with recombinant, single chain (R494E) or two chain HGF/SF in 50 mM phosphate buffer, pH 6.0. Wells were blocked, incubated with dimeric MET constructs at the concentrations shown in FIGS. 2a and b and bound MET was detected with HRP-conjugated rabbit anti-human IgG (Dako P0214). For heparin binding, dimeric MET constructs were loaded on a HiTrap Heparin HP column (Amersham Biosciences 17-0406-01) in 50 mM phosphate, 150 mM NaCl, pH 7.4 and eluted with a linear gradient of NaCl as shown in FIGS. 2c and d.

Experiment [2] relates to single chain (R494E) or two chain HGF/SF. Description: Solid phase binding of dimeric MET deletions to HGF/SF. To be noted: plates coated with single chain (R494E) or two chain HGF/SF; bound MET detected with HRP anti-human IgG. The protocol:
as §1

For experiment [3], the target named is T1, recombinant single chain HGF/SF (R494E) (human, UniProt P14210 32-728).
T1 construct: also called single chain (R494E) HGF/SF
T1 sequence (P14210 32-728 R494E limits assumed): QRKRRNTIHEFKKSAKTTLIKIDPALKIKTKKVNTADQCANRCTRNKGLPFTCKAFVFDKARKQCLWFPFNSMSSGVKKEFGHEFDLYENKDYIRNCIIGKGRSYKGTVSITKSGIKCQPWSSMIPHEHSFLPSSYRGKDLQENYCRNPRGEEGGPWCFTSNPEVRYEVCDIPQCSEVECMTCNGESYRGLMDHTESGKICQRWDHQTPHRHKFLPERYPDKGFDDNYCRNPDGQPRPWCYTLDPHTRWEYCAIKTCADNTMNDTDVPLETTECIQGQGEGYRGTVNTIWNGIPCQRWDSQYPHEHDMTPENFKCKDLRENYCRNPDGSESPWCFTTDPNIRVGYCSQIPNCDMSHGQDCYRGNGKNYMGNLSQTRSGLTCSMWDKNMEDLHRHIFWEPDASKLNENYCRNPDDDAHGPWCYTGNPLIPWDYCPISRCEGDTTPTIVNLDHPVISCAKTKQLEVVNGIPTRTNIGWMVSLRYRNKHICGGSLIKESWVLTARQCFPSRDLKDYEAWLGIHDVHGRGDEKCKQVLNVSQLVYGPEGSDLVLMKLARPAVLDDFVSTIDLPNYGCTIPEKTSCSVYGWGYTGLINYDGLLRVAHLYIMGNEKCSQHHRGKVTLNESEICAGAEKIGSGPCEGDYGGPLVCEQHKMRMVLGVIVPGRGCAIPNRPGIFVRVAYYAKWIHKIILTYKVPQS
Description: solid phase assay, HGF/SF coated, bound MET detected with HRP anti-human IgG. The protocol: as §1

The target of experiment [4] is T2, recombinant two chain HGF/SF (human, UniProt P14210 32-494; P14210 495-728).
T2 construct: also called mature (two-chain) HGF/SF
T2 sequence (P14210 32-494 limits assumed, chain 1 of 2): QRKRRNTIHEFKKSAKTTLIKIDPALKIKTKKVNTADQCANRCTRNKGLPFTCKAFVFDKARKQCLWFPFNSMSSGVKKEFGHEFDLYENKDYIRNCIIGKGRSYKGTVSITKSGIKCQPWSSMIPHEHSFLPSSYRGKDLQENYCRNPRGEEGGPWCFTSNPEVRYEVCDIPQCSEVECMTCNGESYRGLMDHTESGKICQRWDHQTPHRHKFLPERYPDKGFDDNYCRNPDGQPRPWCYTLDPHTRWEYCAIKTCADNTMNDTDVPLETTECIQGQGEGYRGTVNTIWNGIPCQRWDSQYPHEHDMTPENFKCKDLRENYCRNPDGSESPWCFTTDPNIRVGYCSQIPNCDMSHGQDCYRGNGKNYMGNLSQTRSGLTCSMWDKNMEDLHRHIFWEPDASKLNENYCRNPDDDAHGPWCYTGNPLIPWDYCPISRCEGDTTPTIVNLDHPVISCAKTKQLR
T2 sequence (P14210 495-728 limits assumed, chain 2 of 2): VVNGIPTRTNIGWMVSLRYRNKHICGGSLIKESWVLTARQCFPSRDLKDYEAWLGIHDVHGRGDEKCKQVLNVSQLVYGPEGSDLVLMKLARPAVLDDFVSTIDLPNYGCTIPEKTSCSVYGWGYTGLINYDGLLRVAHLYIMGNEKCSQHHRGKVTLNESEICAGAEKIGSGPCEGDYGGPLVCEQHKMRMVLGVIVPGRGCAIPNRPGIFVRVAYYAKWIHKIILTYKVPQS
Described as above. On the procedure:
as §1

Chain of single chain (R494E) or two chain HGF/SF (P14210 32-493 limits assumed, stated change not applied): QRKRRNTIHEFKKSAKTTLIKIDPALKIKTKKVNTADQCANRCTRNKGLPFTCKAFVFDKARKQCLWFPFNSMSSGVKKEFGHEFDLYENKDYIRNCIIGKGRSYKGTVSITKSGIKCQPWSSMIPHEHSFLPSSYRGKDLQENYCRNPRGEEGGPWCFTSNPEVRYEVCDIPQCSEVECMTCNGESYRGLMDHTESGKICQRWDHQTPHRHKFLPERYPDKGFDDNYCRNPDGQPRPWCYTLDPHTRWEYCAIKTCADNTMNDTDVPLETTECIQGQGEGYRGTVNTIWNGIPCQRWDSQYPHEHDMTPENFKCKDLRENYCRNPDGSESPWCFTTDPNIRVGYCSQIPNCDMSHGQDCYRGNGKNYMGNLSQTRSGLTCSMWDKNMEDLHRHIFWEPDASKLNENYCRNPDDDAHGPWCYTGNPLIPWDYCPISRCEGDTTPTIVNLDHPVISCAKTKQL

In the case of “HGF/SF: hepatocyte growth factor/scatter factor, ligand of MET”, the “Binding to immobilised heparin” value in experiment [1] is listed as “strong heparin binding”.

B1: 25-519GH: dimeric MET aa 25-519 fused to human γ1 Fc, hexa-histidine tagged (protein)
chain: ECKEALAKSEMNVNMKYQLPNFTAETPIQNVILHEHHIFLGATNYIYVLNEEDLQKVAEYKTGPVLEHPDCFPCQDCSSKANLSGGVWKDNINMALVVDTYYDDQLISCGSVNRGTCQRHVFPHNHTADIQSEVHCIFSPQIEEPSQCPDCVVSALGAKVLSSVKDRFINFFVGNTINSSYFPDHPLHSISVRRLKETKDGFMFLTDQSYIDVLPEFRDSYPIKYVHAFESNNFIYFLTVQRETLDAQTFHTRIIRFCSINSGLHSYMEMPLECILTEKRKKR
chain (part 1 of 2): STKKEVFNILQAAYVSKPGAQLARQIGASLNDDILFGVFAQSKPDSAEPMDRSAMCAFPIKYVNDFFNKIVNKNNVRCLQHFYGPNHEHCFNRTLLRNSSGCEARRDEYRTEFTTALQRVDLFMGQFSEVLLTSISTFIKGDLTIANLGTSEGRFMQVVVSRSGPSTPHVNFLLDSHPVSPEVIVEHTLNQNGYTLVITGKKITKIPLNGLG
chain (part 2 of 2): HHHHHH
modifications: left off: a dimerising Fc or GST
For B1, the “Binding to immobilised heparin” value in experiment [1] is listed as “indistinguishable from full length MET”; in experiment [1] (listed as MET 25-519GH), “showed binding”. Also, the “Binding to HGF/SF” value in experiment [2] is listed as “readily measurable”.

B2: 25-567GH: dimeric MET aa 25-567 fused to human γ1 Fc, hexa-histidine tagged (protein)
chain: ECKEALAKSEMNVNMKYQLPNFTAETPIQNVILHEHHIFLGATNYIYVLNEEDLQKVAEYKTGPVLEHPDCFPCQDCSSKANLSGGVWKDNINMALVVDTYYDDQLISCGSVNRGTCQRHVFPHNHTADIQSEVHCIFSPQIEEPSQCPDCVVSALGAKVLSSVKDRFINFFVGNTINSSYFPDHPLHSISVRRLKETKDGFMFLTDQSYIDVLPEFRDSYPIKYVHAFESNNFIYFLTVQRETLDAQTFHTRIIRFCSINSGLHSYMEMPLECILTEKRKKR
chain (part 1 of 2): STKKEVFNILQAAYVSKPGAQLARQIGASLNDDILFGVFAQSKPDSAEPMDRSAMCAFPIKYVNDFFNKIVNKNNVRCLQHFYGPNHEHCFNRTLLRNSSGCEARRDEYRTEFTTALQRVDLFMGQFSEVLLTSISTFIKGDLTIANLGTSEGRFMQVVVSRSGPSTPHVNFLLDSHPVSPEVIVEHTLNQNGYTLVITGKKITKIPLNGLGCRHFQSCSQCLSAPPFVQCGWCHDKCVRSEECLSGTWTQQICLPAIYK
chain (part 2 of 2): HHHHHH
modifications: left off: a dimerising Fc or GST
Take B2: the “Binding to HGF/SF” value in experiment [2] is “readily measurable”.

B3: MET 567-932GH (Fc fusion)
chain (part 1 of 2): KVFPNSAPLEGGTRLTICGWDFGFRRNNKFDLKKTRVLLGNESCTLTLSESTMNTLKCTVGPAMNKHFNMSIIISNGHGTTQYSTFSYVDPVITSISPKYGPMAGGTLLTLTGNYLNSGNSRHISIGGKTCTLKSVSNSILECYTPAQTISTEFAVKLKIDLANRETSIFSYREDPIVYEIHPTKSFISGGSTITGVGKNLNSVSVPRMVINVHEAGRNFTVACQHRSNSEIICCTTPSLQQLNLQLPLKTKAFFMLDGILSKYFDLIYVHNPVFKPFEKPVMISMGNENVLEIKGNDIDPEAVKGEVLKVGNKSCENIHLHSEAVLCTVPNDLLKLNSELNIEWKQAISSTVLGKVIVQPDQNFT
chain (part 2 of 2): HHHHHH
notes: IG leader left out; Dimer through the Fc; also called MET567-928GH; not shown: hinge, CH2 and CH3 domains of the human gamma1 antibody constant region
As for B3, the binding result in experiment [3] and in experiment [4] was “no binding” in each case.

B4: MET567-928GH: dimeric C-terminal part of the MET ectodomain fused to human γ1 Fc, hexa-histidine tagged (protein)
chain (part 1 of 2): KVFPNSAPLEGGTRLTICGWDFGFRRNNKFDLKKTRVLLGNESCTLTLSESTMNTLKCTVGPAMNKHFNMSIIISNGHGTTQYSTFSYVDPVITSISPKYGPMAGGTLLTLTGNYLNSGNSRHISIGGKTCTLKSVSNSILECYTPAQTISTEFAVKLKIDLANRETSIFSYREDPIVYEIHPTKSFISGGSTITGVGKNLNSVSVPRMVINVHEAGRNFTVACQHRSNSEIICCTTPSLQQLNLQLPLKTKAFFMLDGILSKYFDLIYVHNPVFKPFEKPVMISMGNENVLEIKGNDIDPEAVKGEVLKVGNKSCENIHLHSEAVLCTVPNDLLKLNSELNIEWKQAISSTVLGKVIVQPDQNFT
chain (part 2 of 2): HHHHHH
modifications: left off: a dimerising Fc or GST
As to B4, the “Binding to immobilised heparin” value in experiment [1] is on record as “no binding”; in experiment [1] (listed as MET 567-928GH), “none”. For the same molecule, the “Binding to HGF/SF” value in experiment [2] is recorded as “no binding”.
